PMC8553545

Biological target: ZBTB7A ZF1-4 (370-500) pXC2222 (Homo sapiens, UniProt O95365 370-500)
Experiment: X-ray crystallography

ZBTB7A ZF1-4 (370-500) pXC2222, sequence (O95365 370-500): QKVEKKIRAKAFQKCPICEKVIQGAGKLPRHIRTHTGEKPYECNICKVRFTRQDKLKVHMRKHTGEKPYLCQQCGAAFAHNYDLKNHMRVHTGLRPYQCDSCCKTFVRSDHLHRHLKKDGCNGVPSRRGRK

B1: 7N5T oligo (dsDNA)
DNA 1: AGGCCCCTTCCCCAC
DNA 2: TGTGGGGAAGGGGCC
binding result: binds

B2: 7N5S oligo (dsDNA)
DNA 1: GGGGCCCCTTCCCCA
DNA 2: CTGGGGAAGGGGCCC
binding result: binds
